This is an account of results in US20030175888.

The target of series [1] is LnmJ-ACP4 (holo-form).
For series [2], the target named is holo-LnmJ-(DH-ACP-KR).
Series [3] has as its target LnmJ-ACP6-1 (holo-form).
For series [4], the target named is LnmJ-ACP6-2 (holo-form).
The target in series [5] is apo-LnmJ-(DH-ACP-KR).
Series [6] has as its target LnmJ-ACP8 (holo-form).
Series [7] deals with T1, LnmP PCP (holo-form).
T1 chain: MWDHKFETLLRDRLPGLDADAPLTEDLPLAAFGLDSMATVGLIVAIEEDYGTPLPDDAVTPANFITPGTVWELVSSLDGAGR

For series [8], the target named is LnmJ-ACP7 (holo-form).
In series [9] the target is LnmJ-ACP5 (holo-form).
In series [10] the target is LnmI-ACP3 (holo-form).

B1: LnmG (protein)
chain: MVALVFPGQGSQRKGMGADLFARFPDLTRQADTVLGHSVEELCRSSGDGRLDRTEYAQPALFVVSALSYLARDPGLPQPTLLAGHSLGEYGALFAAGCFDFATGVRLVRERGALMGRAQGGGMLAVLGVDGDEVQALLAGTGARQVDVANYNTPTQTVLSGPLDELRMVSAALGQRPGVRCVPVRVSAAFHSRHMRPAAQEFATFLTGFSFADPHRTVISSVTARPYGAGQVAELLSRQIESPVRWSETMAYLRERGTTELEEMGPGKVLTGLWKQGRADGAKARAVAPAPVAVVAGVPAAAAARAPASPAPVAARAATAAPARPSDPAPPAPRTAPSPASPVPPASVSRGQRAEELGSAEFRQDYGIRYAYLAGAMFRGIASAELVIRMGRAGLMGFFGAGGLGLDKVESALVRIKDALGPDGRYGMNLLHSIDDPAYEHAVVDLCLKHGVHDVEAAGFTQLTPAVVQFRFSGAHRDAAGRAVAVRRVLAKVSRPEVAAAFMAPAPAAILRRLTADGRLTPQEAEIAAELPVGQDICVEADSGGHTDGGAALTLLPSMIRHRDAAMARHGYGRRIRIGAAGGIGAPEAVAAAFVLGADFVLTGSVNQCSPEAGTSDAVKDILAGLDVQDTAYAPAGDMFEIGARVQVVRKGTLFAARGNKLYQLYRSHDSWESIDAGTRRSVEETYFKRPFAEVWEETRAYHLGRGRDAEIEKADRLPKHRMALAFRWYFARSVRWGLEGEPTQKVNYQIQCGPAIGAFNHVVRGTGLEDWRHRHVDLIAEHLMTGAADVLARR
For the protein B1, the “loading of the [2-14C]malonyl group onto the holo-ACP (SDS-PAGE and phosphor imaging, 5 min)” value was “six of the seven ACPs were efficiently loaded with the malonyl group (FIG. 13C, lanes 2-4 and 6-8)” in [1]; “with ACP6-1 being loaded less efficiently (FIG. 13C, lane 5)” in [3]; “six of the seven ACPs were efficiently loaded with the malonyl group (FIG. 13C, lanes 2-4 and 6-8)” in series [4]; “six of the seven ACPs were efficiently loaded with the malonyl group (FIG. 13C, lanes 2-4 and 6-8)” in series [6]; “six of the seven ACPs were efficiently loaded with the malonyl group (FIG. 13C, lanes 2-4 and 6-8)” in series [8]; “six of the seven ACPs were efficiently loaded with the malonyl group (FIG. 13C, lanes 2-4 and 6-8)” in series [9]. The “loading of the [2-14C]malonyl group onto the holo-ACP (SDS-PAGE and phosphor imaging, 5 min)” value in [10] is “six of the seven ACPs were efficiently loaded with the malonyl group (FIG. 13C, lanes 2-4 and 6-8)”. In addition, in series [2], the “loading of the [2-14C]malonyl group onto the tridomain protein (9% SDS-PAGE and phosphor imaging, 2 to 60 min)” value is listed as “LnmG efficiently loaded the malonyl group to holo-LnmJ-(DH-ACP-KR) (lanes 3-6)”. The “malonyl loading of the two ACPs of PKS module 6 in vitro” value in [4] is given as “LnmG prefers ACP6-2 in vitro”. In addition, the “loading of the [2-14C]malonyl group onto the tridomain protein (9% SDS-PAGE and phosphor imaging)” value in [5] is given as “no loading was observed with the apo-LnmJ-(DH-ACP-KR) protein (lane 2)”. Also, the “loading of the [2-14C]malonyl group onto the holo-PCP (SDS-PAGE and phosphor imaging, 5 min)” value in series [7] is “no loading was observed for the LnmP PCP (FIG. 13C, lane 9)”.
